The text below walks through data of the Human Domainome abundance scans (Beltran et al. 2025).

± gives the uncertainty stated by the source.

Sequences and labels used below:
B1: POU domain, class 3, transcription factor 1, residues 247 to 324; numbered along this chain, Q03052 (parent)
chain: EDAPSSDDLEQFAKQFKQRRIKLGFTQADVGLALGTLYGNVFSQTTICRFEALQLSFKNMCKLKPLLNKWLEETDSSS

In the data set the parent is B1. Description: abundance fitness (aPCA) (normalised: wild type 0, dead -1); higher = more abundant; growth selection in yeast, the domain comes from the species named. The settings on record: Homo sapiens.
Consider EDAPSSDDLEQFAKQFKQRRIKLGFTQADVGLALGTLYGNVFSQTMICRFEALQLSFKNMCKLKPLLNKWLEETDSSS [T46M], for which the abundance fitness came out at 0.069 ± 0.095.
For EDAPSSDDLEQFAKQFKQRRIKLGFTQADVGLALGTLYGNVFSQTLICRFEALQLSFKNMCKLKPLLNKWLEETDSSS [T46L] the value was -0.279 ± 0.084; for EDAPSSDDLEQFAKQFKQRRIKLGFTQADVGLALGTLYGNVFSQTHICRFEALQLSFKNMCKLKPLLNKWLEETDSSS [T46H], -0.261 ± 0.16; for EDAPSSDDLEQFAKQFKQRRIKLGFTQADVGLALGTLYGNVFSQTQICRFEALQLSFKNMCKLKPLLNKWLEETDSSS [T46Q], -0.314 ± 0.15.
With EDAPSSDDLEQFAKQFKQRRIKLGFTQADVGLALGTLYGNVFSQTCICRFEALQLSFKNMCKLKPLLNKWLEETDSSS [T46C], the abundance fitness was -0.64 ± 0.22.
Next, EDAPSSDDLEQFAKQFKQRRIKLGFTQADVGLALGTLYGNVFSQTPICRFEALQLSFKNMCKLKPLLNKWLEETDSSS [T46P]: -0.533 ± 0.25; EDAPSSDDLEQFAKQFKQRRIKLGFTQADVGLALGTLYGNVFSQTNICRFEALQLSFKNMCKLKPLLNKWLEETDSSS [T46N]: -0.373 ± 0.19.
With EDAPSSDDLEQFAKQFKQRRIKLGFTQADVGLALGTLYGNVFSQTDICRFEALQLSFKNMCKLKPLLNKWLEETDSSS [T46D], the abundance fitness turned out to be 0.118 ± 0.091.
Take EDAPSSDDLEQFAKQFKQRRIKLGFTQADVGLALGTLYGNVFSQTAICRFEALQLSFKNMCKLKPLLNKWLEETDSSS [T46A]: the abundance fitness was -0.125 ± 0.068.
Consider EDAPSSDDLEQFAKQFKQRRIKLGFTQADVGLALGTLYGNVFSQTIICRFEALQLSFKNMCKLKPLLNKWLEETDSSS [T46I], for which the abundance fitness was -0.121 ± 0.19.
For EDAPSSDDLEQFAKQFKQRRIKLGFTQADVGLALGTLYGNVFSQTKICRFEALQLSFKNMCKLKPLLNKWLEETDSSS [T46K] the value was -0.304 ± 0.12; for EDAPSSDDLEQFAKQFKQRRIKLGFTQADVGLALGTLYGNVFVQTTICRFEALQLSFKNMCKLKPLLNKWLEETDSSS [S43V], -0.835 ± 0.11.
Next, EDAPSSDDLEQFAKQFKQRRIKLGFTQADVGLALGTLYGNVFRQTTICRFEALQLSFKNMCKLKPLLNKWLEETDSSS [S43R]: -0.329 ± 0.055; EDAPSSDDLEQFAKQFKQRRIKLGFTQADVGLALGTLYGNVFLQTTICRFEALQLSFKNMCKLKPLLNKWLEETDSSS [S43L]: -0.872 ± 0.12; EDAPSSDDLEQFAKQFKQRRIKLGFTQADVGLALGTLYGNVFMQTTICRFEALQLSFKNMCKLKPLLNKWLEETDSSS [S43M]: -0.63 ± 0.13.
As to EDAPSSDDLEQFAKQFKQRRIKLGFTQADVGLALGTLYGNVFKQTTICRFEALQLSFKNMCKLKPLLNKWLEETDSSS [S43K], the abundance fitness was -0.234 ± 0.079.
Take EDAPSSDDLEQFAKQFKQRRIKLGFTQADVGLALGTLYGNVFHQTTICRFEALQLSFKNMCKLKPLLNKWLEETDSSS [S43H]: the abundance fitness was -0.108 ± 0.14.
As for EDAPSSDDLEQFAKQFKQRRIKLGFTQADVGLALGTLYGNVFWQTTICRFEALQLSFKNMCKLKPLLNKWLEETDSSS [S43W], the abundance fitness was -0.371 ± 0.087.
As for EDAPSSDDLEQFAKQFKQRRIKLGFTQADVGLALGTLYGNVFAQTTICRFEALQLSFKNMCKLKPLLNKWLEETDSSS [S43A], the abundance fitness was -0.378 ± 0.07.
Next, EDAPSSDDLEQFAKQFKQRRIKLGFTQADVGLALGTLYGNVFPQTTICRFEALQLSFKNMCKLKPLLNKWLEETDSSS [S43P]: -0.007 ± 0.071; EDAPSSDDLEQFAKQFKQRRIKLGFTQADVGLALGTLYGNVFFQTTICRFEALQLSFKNMCKLKPLLNKWLEETDSSS [S43F]: -1.04 ± 0.46; EDAPSSDDLEQFAKQFKQRRIKLGFTQADVGLALGTLYGNVFNQTTICRFEALQLSFKNMCKLKPLLNKWLEETDSSS [S43N]: 0.045 ± 0.091.
In the case of EDAPSSDDLEQFAKQFKQRRIKLGFTQADVGLALGTLYGNVFDQTTICRFEALQLSFKNMCKLKPLLNKWLEETDSSS [S43D], the abundance fitness is 0.17 ± 0.066.
EDAPSSDDLEQFAKQFKQRRIKLGFTQADVGLALGTLYGNVFYQTTICRFEALQLSFKNMCKLKPLLNKWLEETDSSS [S43Y]: the abundance fitness is -0.389 ± 0.18.
Turning to EDAPSSDDLEQFAKQFKQRRIKLGFTQADVGLALGTLYGNVFTQTTICRFEALQLSFKNMCKLKPLLNKWLEETDSSS [S43T], the abundance fitness is -0.04 ± 0.062.
Turning to EDAPSSDDLEQFAKQFKQRRIKLGFTQADVGLALGTLYGNVFGQTTICRFEALQLSFKNMCKLKPLLNKWLEETDSSS [S43G], the abundance fitness is -0.297 ± 0.049.
In the case of EDAPSSDDLEQFAKQFKQRRIKLGFTQADVGLALGTLYGNVFCQTTICRFEALQLSFKNMCKLKPLLNKWLEETDSSS [S43C], the abundance fitness is -0.485 ± 0.14.
Next, EDAPSSDDLEQFAKQFKQRRIKLGFTQADVGLALGTLYGNVFSQFTICRFEALQLSFKNMCKLKPLLNKWLEETDSSS [T45F]: -0.016 ± 0.19.
For EDAPSSDDLEQFAKQFKQRRIKLGFTQADVGLALGTLYGNVFSQATICRFEALQLSFKNMCKLKPLLNKWLEETDSSS [T45A], the abundance fitness is -0.023 ± 0.051.
For the variant EDAPSSDDLEQFAKQFKQRRIKLGFTQADVGLALGTLYGNVFSQHTICRFEALQLSFKNMCKLKPLLNKWLEETDSSS [T45H], the abundance fitness is -0.055 ± 0.17.
In the case of EDAPSSDDLEQFAKQFKQRRIKLGFTQADVGLALGTLYGNVFSQITICRFEALQLSFKNMCKLKPLLNKWLEETDSSS [T45I], the abundance fitness is -0.557 ± 0.32.
For the variant EDAPSSDDLEQFAKQFKQRRIKLGFTQADVGLALGTLYGNVFSQVTICRFEALQLSFKNMCKLKPLLNKWLEETDSSS [T45V], the abundance fitness is -0.148 ± 0.052.
For the variant EDAPSSDDLEQFAKQFKQRRIKLGFTQADVGLALGTLYGNVFSQNTICRFEALQLSFKNMCKLKPLLNKWLEETDSSS [T45N], the abundance fitness turned out to be 0.112 ± 0.093.
As for EDAPSSDDLEQFAKQFKQRRIKLGFTQADVGLALGTLYGNVFSQETICRFEALQLSFKNMCKLKPLLNKWLEETDSSS [T45E], the abundance fitness came out at 0.185 ± 0.054.
As for EDAPSSDDLEQFAKQFKQRRIKLGFTQADVGLALGTLYGNVFSQGTICRFEALQLSFKNMCKLKPLLNKWLEETDSSS [T45G], the abundance fitness was -0.076 ± 0.039.
